B1: plasminogen (protein)
chain: EPLDDYVNTQGASLFSVTKKQLGAGSIEECAAKCEEDEEFTCRAFQYHSKEQQCVIMAENRKSSIIIRMRDVVLFEKKVYLSECKTGNGKNYRGTMSKTKNGITCQKWSSTSPHRPRFSPATHPSEGLEENYCRNPDNDPQGPWCYTTDPEKRYDYCDILECEEECMHCSGENYDGKISKTMSGLECQAWDSQSPHAHGYIPSKFPNKNLKKNYCRNPDRELRPWCFTTDPNKRWELCDIPRCTTPPPSSGPTYQCLKGTGENYRGNVAVTVSGHTCQHWSAQTPHTHNRTPENFPCKNLDENYCRNPDGKRAPWCHTTNSQVRWEYCKIPSCDSSPVSTEQLAPTAPPELTPVVQDCYHGDGQSYRGTSSTTTTGKKCQSWSSMTPHRHQKTPENYPNAGLTMNYCRNPDADKGPWCFTTDPSVRWEYCNLKKCSGTEASVVAPPPVVLLPDVETPSEEDCMFGNGKGYRGKRATTVTGTPCQDWAAQEPHRHSIFTPETNPRAGLEKNYCRNPDGDVGGPWCYTTNPRKLYDYCDVPQCAAPSFDCGKPQVEPKKCPGRVVGGCVAHPHSWPWQVSLRTRFGMHFCGGTLISPEWVLTAAHCLEKSPRPSSYKVILGAHQEVNLEPHVQEIEVSRLFLEPTRKDIALLKLSSPAVITDKVIPACLPSPNYVVADRTECFITGWGETQGTFGAGLLKEAQLPVIENKVCNRYEFLNGRVQSTELCAGHLAGGTDSCQGDSGGPLVCFEKDKYILQGVTSWGLGCARPNKPGVYVRVSRFVTWIEGVMRNN
B2: plasmin (protein)
chain: VVGGCVAHPHSWPWQVSLRTRFGMHFCGGTLISPEWVLTAAHCLEKSPRPSSYKVILGAHQEVNLEPHVQEIEVSRLFLEPTRKDIALLKLSSPAVITDKVIPACLPSPNYVVADRTECFITGWGETQGTFGAGLLKEAQLPVIENKVCNRYEFLNGRVQSTELCAGHLAGGTDSCQGDSGGPLVCFEKDKYILQGVTSWGLGCARPNKPGVYVRVSRFVTWIEGVMRNN
B3: active-site blocked plasmin (protein)
chain 1: KVYLSECKTGNGKNYRGTMSKTKNGITCQKWSSTSPHRPRFSPATHPSEGLEENYCRNPDNDPQGPWCYTTDPEKRYDYCDILECEEECMHCSGENYDGKISKTMSGLECQAWDSQSPHAHGYIPSKFPNKNLKKNYCRNPDRELRPWCFTTDPNKRWELCDIPRCTTPPPSSGPTYQCLKGTGENYRGNVAVTVSGHTCQHWSAQTPHTHNRTPENFPCKNLDENYCRNPDGKRAPWCHTTNSQVRWEYCKIPSCDSSPVSTEQLAPTAPPELTPVVQDCYHGDGQSYRGTSSTTTTGKKCQSWSSMTPHRHQKTPENYPNAGLTMNYCRNPDADKGPWCFTTDPSVRWEYCNLKKCSGTEASVVAPPPVVLLPDVETPSEEDCMFGNGKGYRGKRATTVTGTPCQDWAAQEPHRHSIFTPETNPRAGLEKNYCRNPDGDVGGPWCYTTNPRKLYDYCDVPQCAAPSFDCGKPQVEPKKCPGR
chain 2: B2 chain
modifications: Pefabloc (AEBSF) active-site blocked

Molecular target: von Willebrand factor (Homo sapiens, UniProt P04275)
Test: Eu-labelled ligand solid-phase equilibrium binding

Kd [nM]	Binder
100	B1
160	B2
270	B3

From PMC2816671 (2010)
